# Assay results taken from US8525237.
# Legend:
# [1] = molecular target: M13 bacteriophage incorporated into PEDOT nanowires (M13 bacteriophage); test: electrical resistance of virus-PEDOT nanowire array in PBF
# [2] = molecular target: M13 bacteriophage incorporated into PEDOT nanowires (M13 bacteriophage); test: electrical resistance of virus-PEDOT nanowire array in PBF, 99 nM antibody
substance,measurement,setting,value
"Anti-M13 antibody (p-Ab, GE Healthcare Life Sciences)",limit of detection,[1],20 nM
same,increase in the resistance (ΔR/R0) at 99 nM antibody,[2],40%
